Data set [1] deals with LjARPC3 (yeast two-hybrid fusion) (Lotus japonicus). The data set is described as follows: two-hybrid; S. cerevisiae AH109; quantitative β-galactosidase (lacZ) activity under the control of the GAL4 promoter.
The target of data set [2] is NIN C-terminal half (RWP-RK domain) (Lotus japonicus, UniProt Q9S7B1 520-878). In words: EMSA; 0.5 or 1 ug protein; unlabeled competitor 5x, 10x or 50x; EMSA with LightShift chemiluminescent kit (Thermo); buffer, salt, pH and temperature not stated. As to conditions: protein: recombinant; tags: C-terminal His; label: biotin; blunt.

From publication PMC4627827, “SCARN a Novel Class of SCAR Protein That Is Required for Root-Hair Infection during Legume Nodulation” come the findings set out here.

NIN C-terminal half (RWP-RK domain), sequence (Q9S7B1 entry or part of it): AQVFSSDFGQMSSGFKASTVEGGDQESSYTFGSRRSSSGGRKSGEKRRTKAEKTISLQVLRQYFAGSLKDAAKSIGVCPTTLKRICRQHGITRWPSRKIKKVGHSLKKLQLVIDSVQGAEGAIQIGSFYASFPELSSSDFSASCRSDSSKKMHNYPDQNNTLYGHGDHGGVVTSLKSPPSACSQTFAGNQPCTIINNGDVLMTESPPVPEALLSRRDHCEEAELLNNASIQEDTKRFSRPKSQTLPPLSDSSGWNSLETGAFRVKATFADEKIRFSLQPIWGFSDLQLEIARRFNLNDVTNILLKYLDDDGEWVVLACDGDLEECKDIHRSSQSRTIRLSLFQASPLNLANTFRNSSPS

“SCARN C-terminal WA domain (yeast two-hybrid fusion) (domain or fragment)” gave a β-galactosidase (LacZ) activity in data set [1] of 18.1 units.

B1: SCARN promoter S3 (dsDNA)
DNA 1: AGTCAAGAGGATTGCAGAAGAAAGTAGGGTTTGTGAATCG
DNA 2: CGATTCACAAACCCTACTTTCTTCTGCAATCCTCTTGACT
For the molecule B1, the binding result in data set [2] is on record as “binds”.

B2: SCARN promoter S2 (dsDNA)
DNA 1: AAGAGGTGAAACTGAAGGAGTCAAGAGGATTGCAGAAGAA
DNA 2: TTCTTCTGCAATCCTCTTGACTCCTTCAGTTTCACCTCTT
For B2, the binding result in data set [2] is recorded as “binds”.

B3: SCARN promoter S1 (dsDNA)
DNA 1: GTAGTAGAGAGATAGAGTGAGTGAAAGGGTTTGAGGAATG
DNA 2: CATTCCTCAAACCCTTTCACTCACTCTATCTCTCTACTAC
Take B3: the binding result in data set [2] is “binds”.
